According to patent US20260042827A1 (published 2026):
Numbering of substitutions follows the chain as printed.

Legend:
HLA-DP4 = molecular target: T1, HLA-DP4 (human, UniProt P20036 29-222; P04440 30-225); test: competition
T1 chain 1: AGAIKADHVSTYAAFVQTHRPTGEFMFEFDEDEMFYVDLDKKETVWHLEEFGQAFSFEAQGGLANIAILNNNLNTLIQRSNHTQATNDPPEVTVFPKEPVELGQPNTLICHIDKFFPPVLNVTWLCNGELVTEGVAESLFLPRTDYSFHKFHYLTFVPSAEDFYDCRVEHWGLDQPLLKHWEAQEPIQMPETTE
T1 chain 2: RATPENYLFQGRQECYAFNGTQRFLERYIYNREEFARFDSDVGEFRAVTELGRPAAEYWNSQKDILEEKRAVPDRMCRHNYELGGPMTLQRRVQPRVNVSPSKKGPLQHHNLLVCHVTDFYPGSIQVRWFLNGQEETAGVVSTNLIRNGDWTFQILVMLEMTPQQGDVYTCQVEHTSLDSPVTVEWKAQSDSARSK

HLA-DP2 = molecular target: T2, HLA-DP2 (human, UniProt P20036 29-222; P04440 30-225); test: competition
T2 chain 1: T1 chain 1
T2 chain 2: T1 chain 2 with A36V, A55D, A56E, K69E

B1: WT1328-348 (peptide)
peptide: PGCNKRYFKLSHLQMHSRKHT
B1 showed an IC50 (HLA-DP4) of 23.8 µM and an IC50 (HLA-DP2) of 8 µM.
